Values quoted from earlier work as cited in article PMC11736853.
Read-outs that look alike come from different tables or passages of the source. Each block holds one substance with its values, some of them ahead of it.

Key:
[1] = biological target: R6IP peptide 64 (Homo sapiens) (UniProt Q6IQ26)
[2] = biological target: BCL9 peptide 53 347-381 (Homo sapiens) (UniProt O00512); assay: FP
[3] = biological target: BCL9 peptide 53 347-381 (Homo sapiens) (UniProt O00512); assay: competitive FP
[4] = biological target: BCL9 peptide 54 351-375 (Homo sapiens) (UniProt O00512); assay: competitive FP
Chain of BCL9 peptide 54 351-375 (Homo sapiens) (O00512 351-375): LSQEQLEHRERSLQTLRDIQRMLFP

[5] = biological target: TRF2 41-residue sequence (Homo sapiens) (UniProt Q15554)
[6] = biological target: CK2β triazole cyclised peptide (Homo sapiens) (UniProt P67870); assay: ITC
Chain of CK2β triazole cyclised peptide (Homo sapiens) (P67870 2-215): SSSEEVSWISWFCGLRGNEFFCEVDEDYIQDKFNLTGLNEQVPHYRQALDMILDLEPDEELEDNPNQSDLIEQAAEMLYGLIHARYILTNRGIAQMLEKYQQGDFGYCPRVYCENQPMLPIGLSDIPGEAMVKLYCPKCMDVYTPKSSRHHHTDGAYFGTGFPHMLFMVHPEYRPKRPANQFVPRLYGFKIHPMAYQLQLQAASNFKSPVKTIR

RAP1 (Homo sapiens) = RAP1 (Homo sapiens) (UniProt Q9NYB0)
Chain of RAP1 (Homo sapiens) (Q9NYB0 2-399): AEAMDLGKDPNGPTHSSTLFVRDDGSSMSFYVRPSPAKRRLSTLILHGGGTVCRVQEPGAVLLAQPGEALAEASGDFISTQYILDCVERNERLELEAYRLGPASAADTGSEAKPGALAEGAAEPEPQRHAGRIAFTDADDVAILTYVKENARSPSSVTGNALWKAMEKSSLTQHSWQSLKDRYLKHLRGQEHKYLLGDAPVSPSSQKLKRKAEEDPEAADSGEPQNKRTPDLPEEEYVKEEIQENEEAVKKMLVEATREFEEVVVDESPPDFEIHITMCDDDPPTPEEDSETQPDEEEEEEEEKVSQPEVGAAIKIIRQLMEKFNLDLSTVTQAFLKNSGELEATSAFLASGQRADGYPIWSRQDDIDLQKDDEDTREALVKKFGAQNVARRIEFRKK

[7] = biological target: Nrf2 peptide 41 (Homo sapiens) (UniProt Q16236)
Chain of Nrf2 peptide 41 (Homo sapiens) (Q16236 whole entry, looked up, tested part not stated): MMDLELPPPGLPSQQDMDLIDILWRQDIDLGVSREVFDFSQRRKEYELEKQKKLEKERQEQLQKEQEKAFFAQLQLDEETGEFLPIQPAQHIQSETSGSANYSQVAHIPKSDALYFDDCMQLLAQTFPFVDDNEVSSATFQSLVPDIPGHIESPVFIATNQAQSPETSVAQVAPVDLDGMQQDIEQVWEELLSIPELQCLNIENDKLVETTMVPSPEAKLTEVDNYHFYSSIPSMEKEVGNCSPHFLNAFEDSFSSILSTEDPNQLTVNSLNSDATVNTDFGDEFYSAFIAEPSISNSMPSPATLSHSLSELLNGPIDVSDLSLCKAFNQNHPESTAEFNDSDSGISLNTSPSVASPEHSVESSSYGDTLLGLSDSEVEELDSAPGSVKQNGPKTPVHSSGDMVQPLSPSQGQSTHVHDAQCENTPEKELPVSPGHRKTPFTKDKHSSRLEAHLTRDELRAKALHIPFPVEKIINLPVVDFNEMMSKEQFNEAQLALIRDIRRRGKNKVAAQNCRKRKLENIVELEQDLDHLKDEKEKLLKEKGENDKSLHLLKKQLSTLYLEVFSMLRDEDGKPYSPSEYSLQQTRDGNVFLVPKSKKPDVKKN

[8] = biological target: AIF peptide 39 (Homo sapiens) (UniProt O95831)
Chain of AIF peptide 39 (Homo sapiens) (O95831 370-394): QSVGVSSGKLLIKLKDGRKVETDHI

[9] = biological target: AIF bicyclic peptide 63 (Homo sapiens) (UniProt O95831)
[10] = biological target: AIF peptide 39 (Homo sapiens) (UniProt O95831); assay: SPR
[11] = biological target: AIF peptide 40 (Homo sapiens) (UniProt O95831); assay: SPR
Chain of AIF peptide 40 (Homo sapiens) (O95831 whole entry, looked up, tested part not stated): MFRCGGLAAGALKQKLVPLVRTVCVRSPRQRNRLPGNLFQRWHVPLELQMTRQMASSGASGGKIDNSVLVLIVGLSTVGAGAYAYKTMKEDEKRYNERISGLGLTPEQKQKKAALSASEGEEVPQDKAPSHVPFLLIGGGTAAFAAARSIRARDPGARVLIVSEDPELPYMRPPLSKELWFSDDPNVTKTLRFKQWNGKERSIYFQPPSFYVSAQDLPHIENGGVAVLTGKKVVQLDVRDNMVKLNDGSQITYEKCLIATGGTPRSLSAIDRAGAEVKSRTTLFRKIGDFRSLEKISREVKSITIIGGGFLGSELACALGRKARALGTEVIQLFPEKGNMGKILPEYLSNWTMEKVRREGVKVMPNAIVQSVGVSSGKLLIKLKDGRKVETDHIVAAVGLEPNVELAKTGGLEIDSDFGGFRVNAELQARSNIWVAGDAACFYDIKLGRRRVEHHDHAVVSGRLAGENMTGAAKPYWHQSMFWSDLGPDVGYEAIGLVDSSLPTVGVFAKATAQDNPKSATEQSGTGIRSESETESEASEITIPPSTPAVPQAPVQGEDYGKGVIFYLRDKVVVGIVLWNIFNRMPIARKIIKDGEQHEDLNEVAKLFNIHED

[12] = biological target: iNOS peptide 24 (Homo sapiens) (UniProt P35228); assay: ITC

Chain of CypA (P62937 2-165): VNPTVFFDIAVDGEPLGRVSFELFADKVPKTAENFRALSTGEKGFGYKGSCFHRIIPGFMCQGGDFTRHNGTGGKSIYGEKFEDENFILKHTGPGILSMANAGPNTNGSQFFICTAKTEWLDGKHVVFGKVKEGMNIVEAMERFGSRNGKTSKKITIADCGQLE
Chain of β-catenin (P35222 2-781): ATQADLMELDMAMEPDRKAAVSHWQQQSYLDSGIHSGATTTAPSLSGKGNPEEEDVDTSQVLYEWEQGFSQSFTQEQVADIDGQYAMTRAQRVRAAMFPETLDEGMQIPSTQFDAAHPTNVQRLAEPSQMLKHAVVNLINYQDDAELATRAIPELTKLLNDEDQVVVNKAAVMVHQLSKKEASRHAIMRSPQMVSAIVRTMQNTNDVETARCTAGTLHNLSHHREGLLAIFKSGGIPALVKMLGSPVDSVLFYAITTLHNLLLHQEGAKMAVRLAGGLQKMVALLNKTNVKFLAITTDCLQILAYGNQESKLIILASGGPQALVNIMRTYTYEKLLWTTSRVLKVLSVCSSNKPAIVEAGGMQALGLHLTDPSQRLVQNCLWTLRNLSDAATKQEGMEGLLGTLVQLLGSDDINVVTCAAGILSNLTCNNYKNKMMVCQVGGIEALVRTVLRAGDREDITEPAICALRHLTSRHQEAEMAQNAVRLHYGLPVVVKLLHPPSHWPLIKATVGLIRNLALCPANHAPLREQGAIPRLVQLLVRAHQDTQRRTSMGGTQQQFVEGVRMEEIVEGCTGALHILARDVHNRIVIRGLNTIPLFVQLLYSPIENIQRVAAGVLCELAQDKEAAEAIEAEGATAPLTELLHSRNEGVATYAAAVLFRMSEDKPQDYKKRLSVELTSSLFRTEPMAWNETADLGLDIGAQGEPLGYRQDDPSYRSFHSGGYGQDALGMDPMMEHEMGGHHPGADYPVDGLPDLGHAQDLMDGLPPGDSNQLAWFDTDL
Chain of BCL9 peptide 53 347-381 (Homo sapiens) (O00512 347-381): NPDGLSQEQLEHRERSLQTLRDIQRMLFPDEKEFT
Chain of RAP1 (Q9NYB0 2-399): as the sequence (Q9NYB0 2-399) above
Chain of Rab6a (P20340 2-208): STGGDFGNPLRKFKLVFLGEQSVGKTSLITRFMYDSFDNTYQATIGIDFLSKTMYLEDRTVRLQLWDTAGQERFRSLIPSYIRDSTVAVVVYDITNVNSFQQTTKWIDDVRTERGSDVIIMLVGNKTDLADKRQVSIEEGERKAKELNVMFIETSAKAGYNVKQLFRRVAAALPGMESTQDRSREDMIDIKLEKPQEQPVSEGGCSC
Chain of Keap1 (Q14145 whole entry): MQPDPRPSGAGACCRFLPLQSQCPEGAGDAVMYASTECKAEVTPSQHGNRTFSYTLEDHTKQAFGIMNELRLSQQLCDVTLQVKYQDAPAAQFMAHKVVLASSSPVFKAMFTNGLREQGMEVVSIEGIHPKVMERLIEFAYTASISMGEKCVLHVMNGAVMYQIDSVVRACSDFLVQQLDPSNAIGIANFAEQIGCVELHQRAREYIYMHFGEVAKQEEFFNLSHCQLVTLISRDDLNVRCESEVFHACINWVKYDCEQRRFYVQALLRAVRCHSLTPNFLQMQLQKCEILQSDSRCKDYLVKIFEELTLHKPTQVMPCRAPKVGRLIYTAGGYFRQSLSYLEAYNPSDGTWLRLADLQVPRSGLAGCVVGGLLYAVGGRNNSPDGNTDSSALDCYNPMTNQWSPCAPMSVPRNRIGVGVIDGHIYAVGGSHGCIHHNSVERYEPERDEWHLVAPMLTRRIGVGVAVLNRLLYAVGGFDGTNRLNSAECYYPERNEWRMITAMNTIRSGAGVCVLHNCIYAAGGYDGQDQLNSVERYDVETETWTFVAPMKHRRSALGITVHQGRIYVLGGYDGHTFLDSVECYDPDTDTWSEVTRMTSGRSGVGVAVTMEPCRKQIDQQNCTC
Chain of SPSB2 (Q99619 whole entry): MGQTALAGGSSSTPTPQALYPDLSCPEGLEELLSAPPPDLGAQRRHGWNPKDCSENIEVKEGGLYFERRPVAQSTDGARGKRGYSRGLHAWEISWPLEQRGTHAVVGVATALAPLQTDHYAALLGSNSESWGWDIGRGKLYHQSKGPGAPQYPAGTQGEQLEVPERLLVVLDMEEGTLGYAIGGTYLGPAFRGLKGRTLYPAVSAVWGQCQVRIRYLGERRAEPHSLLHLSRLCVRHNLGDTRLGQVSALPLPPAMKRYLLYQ
Chain of CK2α (P68400 whole entry): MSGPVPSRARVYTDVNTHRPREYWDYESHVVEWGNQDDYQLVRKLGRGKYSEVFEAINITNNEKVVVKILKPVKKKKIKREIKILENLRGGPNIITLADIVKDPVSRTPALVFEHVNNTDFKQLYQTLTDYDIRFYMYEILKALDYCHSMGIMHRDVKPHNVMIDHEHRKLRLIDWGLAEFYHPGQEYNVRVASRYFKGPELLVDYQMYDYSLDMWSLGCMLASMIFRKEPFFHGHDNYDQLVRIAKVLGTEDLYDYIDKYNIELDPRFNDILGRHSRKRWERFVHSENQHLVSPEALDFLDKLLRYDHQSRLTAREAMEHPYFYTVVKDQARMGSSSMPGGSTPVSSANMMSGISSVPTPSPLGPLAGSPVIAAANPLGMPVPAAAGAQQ

- Kd [1]: 7800 nM
Substance: Rab6a (from UniProt P20340)

- Kd [2]: 616 nM
- Ki [3]: 960 nM
- Ki [4]: 1900 nM
Substance: β-catenin (from UniProt P35222)

- Kd [5]: 16.5 nM
Substance: RAP1 (from UniProt Q9NYB0)

- Kd [6]: 460 nM
Substance: CK2α (from UniProt P68400)

- Kd (RAP1 (Homo sapiens)): 16.5 nM
Substance: TRF2 41-residue peptide (from UniProt Q15554)

- Kd [7]: 27.3 nM
Substance: Keap1 (from UniProt Q14145)

- Kd [8]: 5000 nM
- Kd [9]: 850 nM
- Kd [10]: 12000 nM
- Kd [11]: 2400 nM
Substance: CypA (from UniProt P62937)

- Kd [12]: 13.3 nM
Substance: SPSB2 (from UniProt Q99619)
